Earlier results in patent US9358478B2, “Spray-drying apparatus and methods of using the same” (Bend Research, Inc., priority 2010, dated 2016).

Conditions: in words

For Peptide YY (PYY) [Active Agent 3], the solubility in water is given as “soluble”.
